From patent US20230167164A1 (IMMUNOWAKE, published 2023)
Values belong to the binder of their own block, whether it stands above or below them.

What was measured:
CD8 on CD8+ T cells = biological target: T1, CD8 on CD8+ T cells (human, UniProt P01732 22-235); experiment: FACS on CD8+ T cells
T1 construct: whole, on cells

IL-23 receptor complex = IL-23 receptor complex (UniProt P42701 24-662; Q5VWK5 24-629, limits assumed); experiment: cell-based or functional assay
human PD-1 [1] = biological target: T2, human PD-1 (human, UniProt Q15116 25-167, limits assumed); experiment: PD-L2-Fc format, calibrated on PD-L2(wt)-Fc binding affinity
T2 construct: nivolumab is called an anti-human PD-1 antibody; also called hPD-1

mouse PD-1 = biological target: T3, mouse PD-1 (mouse, UniProt Q02242 25-167, limits assumed); experiment: as above
T3 construct: also called mPD-1
T3 sequence (looked up): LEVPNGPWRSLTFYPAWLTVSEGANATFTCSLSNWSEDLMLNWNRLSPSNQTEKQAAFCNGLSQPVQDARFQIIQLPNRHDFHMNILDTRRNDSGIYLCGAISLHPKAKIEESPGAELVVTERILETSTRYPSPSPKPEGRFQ

human PD-1 [2] = biological target: T2, human PD-1; experiment: Biacore and cell-based assays, calibrated by wildtype nivolumab binding affinity

T2 sequence (Q15116 25-167 limits assumed): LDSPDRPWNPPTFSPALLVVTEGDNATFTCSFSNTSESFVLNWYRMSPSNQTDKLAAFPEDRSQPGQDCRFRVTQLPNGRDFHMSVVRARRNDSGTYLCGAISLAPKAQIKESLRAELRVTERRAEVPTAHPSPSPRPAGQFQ
T1 sequence (P01732 22-235): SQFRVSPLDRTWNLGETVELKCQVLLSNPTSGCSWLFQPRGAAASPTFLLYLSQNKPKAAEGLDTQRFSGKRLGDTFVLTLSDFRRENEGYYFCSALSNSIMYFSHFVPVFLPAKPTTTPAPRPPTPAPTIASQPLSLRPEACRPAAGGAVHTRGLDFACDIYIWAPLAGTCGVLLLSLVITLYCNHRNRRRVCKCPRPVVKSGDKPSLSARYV
Sequence of IL-23 receptor complex (Q5VWK5 24-629 limits assumed, chain 2 of 2, other chains not shown): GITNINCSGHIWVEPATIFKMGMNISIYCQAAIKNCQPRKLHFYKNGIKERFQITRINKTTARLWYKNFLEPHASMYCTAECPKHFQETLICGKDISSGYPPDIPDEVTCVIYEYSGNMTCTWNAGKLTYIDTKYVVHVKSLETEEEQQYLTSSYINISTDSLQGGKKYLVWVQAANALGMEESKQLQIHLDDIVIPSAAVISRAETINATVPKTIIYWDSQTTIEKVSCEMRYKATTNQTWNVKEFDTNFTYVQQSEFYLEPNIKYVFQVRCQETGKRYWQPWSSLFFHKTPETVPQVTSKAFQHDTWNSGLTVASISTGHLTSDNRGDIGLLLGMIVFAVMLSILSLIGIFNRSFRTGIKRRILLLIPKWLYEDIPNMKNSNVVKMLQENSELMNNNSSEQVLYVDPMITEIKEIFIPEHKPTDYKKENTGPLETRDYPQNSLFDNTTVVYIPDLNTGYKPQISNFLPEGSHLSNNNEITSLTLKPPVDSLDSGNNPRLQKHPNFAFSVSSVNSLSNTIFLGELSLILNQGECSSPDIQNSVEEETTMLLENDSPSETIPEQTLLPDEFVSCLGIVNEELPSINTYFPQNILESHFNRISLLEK

B1: Fab-IL-23(E59A/F60A)-Fc-CD4 Ab (other)
heavy 1: QVQLQQSGPEVVKPGASVKMSCKASGYTFTSYVIHWVRQKPGQGLDWIGYINPYNDGTDYDEKFKGKATLTSDTSTSTAYMELSSLRSEDTAVYYCAREKDNYATGAWFAYWGQGTLVTVSSASTKGPSVFPLAPSSKSTSGGTAALGCLVKDYFPEPVTVSWNSGALTSGVHTFPAVLQSSGLYSLSSVVTVPSSSLGTQTYICNVNHKPSNTKVDKKVEPKSCDKPGSGIWELKKDVYVVELDWYPDAPGEMVVLTCDTPEEDGITWTLDQSSEVLGSGKTLTIQVKAAGDAGQYTCHKGGEVLSHSLLLLHKKEDGIWSTDILKDQKEPKNKTFLRCEAKNYSGRFTCWWLTTISTDLTFSVKSSRGSSDPQGVTCGAATLSAERVRGDNKEYEYSVECQEDSACPAAEESLPIEVMVDAVHKLKYENYTSSFFIRDIIKPDPPKNLQLKPLKNSRQVEVSWEYPDTWSTPHSYFSLTFCVQVQGKSKREKKDRVFTDKTSATVICRKNASISVRAQDRYYSSSWSEWASVPCSGGGGSGGGGSGGGGSGGGGSGRAVPGGSSPAWTQCQQLSQKLCTLAWSAHPLVGHMDLREEGDEETTNDVPHIQCGDGCDPQGLRDNSQFCLQRIHQGLIFYEKLLGSDIFTGEPSLLPDSPVGQLHASLLGLSQLLQPEGHHWETQQIPSLSPSQPWQRLLLRFKILRSLQAFVAVAARVFAHGAATLSPDKTHTCPPCPAPEDEGGPSVFLFPPKPKDTLMISRTPEVTCVVVDVSHEDPEVKFNWYVDGVEVHNAKTKPREEQYNSTYRVVSVLTVLHQDWLNGKEYKCKVSNKALPAPIEKTISKAKGQPREPQVYVYPPSREEMTKNQVSLTCLVKGFYPSDIAVEWESNGQPENNYKTTPPVLDEDGSFALVSKLTVDKSRWQQGNVFSCSVMHEALHNHYTQKSLSLSPGK
heavy 2: QVQLQQSGPEVVKPGASVKMSCKASGYTFTSYVIHWVRQKPGQGLDWIGYINPYNDGTDYDEKFKGKATLTSDTSTSTAYMELSSLRSEDTAVYYCAREKDNYATGAWFAYWGQGTLVTVSSASTKGPSVFPLAPSSKSTSGGTAALGCLVKDYFPEPVTVSWNSGALTSGVHTFPAVLQSSGLYSLSSVVTVPSSSLGTQTYICNVNHKPSNTKVDKKVEPKSCDKTHTCPPCPAPEKKGGPSVFLFPPKPKDTLMISRTPEVTCVVVDVSHEDPEVKFNWYVDGVEVHNAKTKPREEQYNSTYRVVSVLTVLHQDWLNGKEYKCKVSNKALPAPIEKTISKAKGQPREPQVYVLPPSREEMTKNQVSLLCLVKGFYPSDIAVEWESNGQPENRYMTWPPVLDSDGSFFLYSKLTVDKSRWQQGNVFSCSVMHEALHNHYTQKSLSLSPGK
light: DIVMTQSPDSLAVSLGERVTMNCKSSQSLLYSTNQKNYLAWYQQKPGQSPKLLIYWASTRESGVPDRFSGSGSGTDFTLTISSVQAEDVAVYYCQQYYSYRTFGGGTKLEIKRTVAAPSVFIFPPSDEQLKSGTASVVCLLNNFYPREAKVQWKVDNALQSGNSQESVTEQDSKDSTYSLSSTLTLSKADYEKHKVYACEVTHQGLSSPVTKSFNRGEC
binding result (CD8 on CD8+ T cells): no binding
IFN-γ release, % of rIL-23, activated CD8+ T cells (IL-23 receptor complex): 0%

B4: anti-PD-1 antibody HC-CDR3(D100G) (antibody, IgG1, V domains shown)
VH: QVQLVESGGGVVQPGRSLRLDCKASGITFSNSGMHWVRQAPGKGLEWVAVIWYDGSKRYYADSVKGRFTISRDNSKNTLFLQMNSLRAEDTAVYYCATNGDYWGQGTLVTVSS
VL: EIVLTQSPATLSLSPGERATLSCRASQSVSSYLAWYQQKPGQAPRLLIYDASNRATGIPARFSGSGSGTDFTLTISSLEPEDFAVYYCQQSSNWPRTFGQGTKVEIKR
notes: heterodimeric IgG1 as the WT antibody
Kd (human PD-1 [2]): 130 nM

B5: anti-PD-1 antibody HC-CDR3(N99G) (antibody, IgG1, V domains shown)
VH: QVQLVESGGGVVQPGRSLRLDCKASGITFSNSGMHWVRQAPGKGLEWVAVIWYDGSKRYYADSVKGRFTISRDNSKNTLFLQMNSLRAEDTAVYYCATGDDYWGQGTLVTVSS
VL: EIVLTQSPATLSLSPGERATLSCRASQSVSSYLAWYQQKPGQAPRLLIYDASNRATGIPARFSGSGSGTDFTLTISSLEPEDFAVYYCQQSSNWPRTFGQGTKVEIKR
notes: as for B4
Kd (human PD-1 [2]): 2300 nM

Continued, values first:

Kd (human PD-1 [1]): 520 nM
Kd (mouse PD-1): 430 nM
B2: PD-L2(mut1)-Fc (Fc fusion)
chain 1: LFTVTVPKELYIIEHGSNVTLECNFDTGSHVNLGAIVASLQKVENDTSPHRERATLLEEQLPLGKASFHIPQVQVRDEGQYQCIIIYGVAWDYKYLTLKVKASYRKINTHILKVPETDEVELTCQATGYPLAEVSWPNVSVPANTSHSRTPEGLYQVTSVLRLKPPPGRNFSCVFWNTHVRELTLASIDLQSQMEPRTHPTDKTHTCPPCPAPEDEGGPSVFLFPPKPKDTLMISRTPEVTCVVVDVSHEDPEVKFNWYVDGVEVHNAKTKPREEQYNSTYRVVSVLTVLHQDWLNGKEYKCKVSNKALPAPIEKTISKAKGQPREPQVYVYPPSREEMTKNQVSLTCLVKGFYPSDIAVEWESNGQPENNYKTTPPVLDEDGSFALVSKLTVDKSRWQQGNVFSCSVMHEALHNHYTQKSLSLSPGK
chain 2: LFTVTVPKELYIIEHGSNVTLECNFDTGSHVNLGAIVASLQKVENDTSPHRERATLLEEQLPLGKASFHIPQVQVRDEGQYQCIIIYGVAWDYKYLTLKVKASYRKINTHILKVPETDEVELTCQATGYPLAEVSWPNVSVPANTSHSRTPEGLYQVTSVLRLKPPPGRNFSCVFWNTHVRELTLASIDLQSQMEPRTHPTDKTHTCPPCPAPEKKGGPSVFLFPPKPKDTLMISRTPEVTCVVVDVSHEDPEVKFNWYVDGVEVHNAKTKPREEQYNSTYRVVSVLTVLHQDWLNGKEYKCKVSNKALPAPIEKTISKAKGQPREPQVYVLPPSREEMTKNQVSLLCLVKGFYPSDIAVEWESNGQPENRYMTWPPVLDSDGSFFLYSKLTVDKSRWQQGNVFSCSVMHEALHNHYTQKSLSLSPGK
notes: also called T56V

Kd (human PD-1 [1]): 350 nM
Kd (mouse PD-1): 230 nM
B3: PD-L2(mut2)-Fc (Fc fusion)
chain 1: LFTVTVPKELYIIEHGSNVTLECNFDTGSHVNLGAITAVLQKVENDTSPHRERATLLEEQLPLGKASFHIPQVQVRDEGQYQCIIIYGVAWDYKYLTLKVKASYRKINTHILKVPETDEVELTCQATGYPLAEVSWPNVSVPANTSHSRTPEGLYQVTSVLRLKPPPGRNFSCVFWNTHVRELTLASIDLQSQMEPRTHPTDKTHTCPPCPAPEDEGGPSVFLFPPKPKDTLMISRTPEVTCVVVDVSHEDPEVKFNWYVDGVEVHNAKTKPREEQYNSTYRVVSVLTVLHQDWLNGKEYKCKVSNKALPAPIEKTISKAKGQPREPQVYVYPPSREEMTKNQVSLTCLVKGFYPSDIAVEWESNGQPENNYKTTPPVLDEDGSFALVSKLTVDKSRWQQGNVFSCSVMHEALHNHYTQKSLSLSPGK
chain 2: LFTVTVPKELYIIEHGSNVTLECNFDTGSHVNLGAITAVLQKVENDTSPHRERATLLEEQLPLGKASFHIPQVQVRDEGQYQCIIIYGVAWDYKYLTLKVKASYRKINTHILKVPETDEVELTCQATGYPLAEVSWPNVSVPANTSHSRTPEGLYQVTSVLRLKPPPGRNFSCVFWNTHVRELTLASIDLQSQMEPRTHPTDKTHTCPPCPAPEKKGGPSVFLFPPKPKDTLMISRTPEVTCVVVDVSHEDPEVKFNWYVDGVEVHNAKTKPREEQYNSTYRVVSVLTVLHQDWLNGKEYKCKVSNKALPAPIEKTISKAKGQPREPQVYVLPPSREEMTKNQVSLLCLVKGFYPSDIAVEWESNGQPENRYMTWPPVLDSDGSFFLYSKLTVDKSRWQQGNVFSCSVMHEALHNHYTQKSLSLSPGK
notes: also called PD-L2(S58V)

Kd (human PD-1 [2]): 25 nM
B6: anti-PD-1 antibody HC-CDR3(D100N) (antibody, IgG1, V domains shown)
VH: QVQLVESGGGVVQPGRSLRLDCKASGITFSNSGMHWVRQAPGKGLEWVAVIWYDGSKRYYADSVKGRFTISRDNSKNTLFLQMNSLRAEDTAVYYCATNNDYWGQGTLVTVSS
VL: EIVLTQSPATLSLSPGERATLSCRASQSVSSYLAWYQQKPGQAPRLLIYDASNRATGIPARFSGSGSGTDFTLTISSLEPEDFAVYYCQQSSNWPRTFGQGTKVEIKR
notes: as for B4

Kd (human PD-1 [2]): 910 nM
B7: anti-PD-1 antibody HC-CDR3(D100R) (antibody, IgG1, V domains shown)
VH: QVQLVESGGGVVQPGRSLRLDCKASGITFSNSGMHWVRQAPGKGLEWVAVIWYDGSKRYYADSVKGRFTISRDNSKNTLFLQMNSLRAEDTAVYYCATNRDYWGQGTLVTVSS
VL: EIVLTQSPATLSLSPGERATLSCRASQSVSSYLAWYQQKPGQAPRLLIYDASNRATGIPARFSGSGSGTDFTLTISSLEPEDFAVYYCQQSSNWPRTFGQGTKVEIKR
notes: as for B4
